Measured values taken from patent US20190194323A1 (ALLAKOS, published 2019).

B1: monoclonal antibody 8A2 (antibody, V domains shown)
VH: QVQLKESGPGLVAPSQSLSITCTVSGFSLTTYGVDWVRQFPGKGLEWLGVIWGGGNTNYNSALMSRLSISKDTSKSQVFLKMNSLQTDDTAMYYCAKHKGTSHAMEYWGQGTSVTVSS
VL: QIVLTQSPAIMSASPGEKVTMTCSASSRVIFMYWYQQKPGSSPRLLIYDTSNLASGVPVRFSGGGSGTSYSLTISRMEAEDAATYYCQQWSSYPPTFGAGTKLELK
B2: 5D1 (antibody)
heavy chain variable region: QVQLQQPGAELVKPGASVKMSCKASGYTFTSSWITWVKDRPGQGLEWIGDIYPGNGNTNYNEKFKSKATLTVDTSSNTVYMQLSSLTSEDSAVHYCARDGRGYFDYWGPGTTLTVSS
light chain variable region: DIQMTQTTSSLSASLGDRVTIICRASQDISNFLNWYQQKPDGTVKLLMYDTSILQSGVPSRFSGRGSGADYSLTINNLEQEDLATYFCQQGKTLPYTFGGGTKLEIK
B3: anti-Siglec-7 antibody 4B12 (antibody, V domains shown)
VH: EVQLQQSGPELVKPGASVKIPCKASGYTFTDYNMDWVKQSHEKSLEWIGDIDPHNGVTLYNQKFKDKATLTIDKSSNTAYMELRSLTSEDSAVYYCALTGSTYWGQGTLVTVSA
VL: DIVMTQSQKFMSTSVGDRVSVTCKASQNVGTNVAWYQQKPGQSPKAVIYSASYRNSGVPDRFTGSGSGTDFTLTISNVQSEDLTEYFCQQYNNYPYTFGGGTKLEIK
notes: Used as an AF647 conjugate for detection in the internalization assay; also called 4B12-AF647
B4: 13D2 (antibody, V domains shown)
VH: DVQLQESGPGMVKPSQSLSLTCTVTGYSITSDYDWHWIRHFPGNKLEWMGYISYSGSTKYNPSLKSRISITHDTSKNHFFLKLNSVTAEDTATYYCARENDFPGFWYFDVWGTGTTVTVSS
VL: DIVMSQSPSSQVVSVGEKVTVTCTSSQSLLYGTNQKNYLAWYQQKPGQSPKLLIYWASIRESGVPDRFTGSGSGTDFTLTISSVKAEDLAVYYCQQYYSYPLTFGAGTKLELK
B5: humanized 16H11-derived Fab, VH AK449-6 / VL AK418-2 (Fab, V domains shown)
VH: QVQLVQSGAEVKKPGSSVKVSCKGSGYDFSNFWMNWVRQAPGQGLEWMGGIYPGDGEIKYNQKFQGRVTITADESTSTAYMELSSLRSEDTAVYYCARDDYLRAMDIWGQGTMVTVSS
VL: DIQMTQSPSSLSASVGDRVTITCRASGNIHNYLAWYQQKPGKAPKFLLYSAKRLESGVPSRFSGSGSGTDYTLTISSLQPEDFATYYCQHFWSSPYTFGGGTKVEIK
notes: Measured as monovalent Fab; also called No. 30; VH449-6 and VL418-2
B6: humanized 16H11-derived Fab, VH AK449-6 / VL AK448-3 (Fab, V domains shown)
VH: QVQLVQSGAEVKKPGSSVKVSCKGSGYDFSNFWMNWVRQAPGQGLEWMGGIYPGDGEIKYNQKFQGRVTITADESTSTAYMELSSLRSEDTAVYYCARDDYLRAMDIWGQGTMVTVSS
VL: DIQMTQSPSSLSASVGDRVTITCRASQNIHNYLAWYQQKPGKAPKFLLYSAKRLESGVPSRFSGSGSGTDYTLTISSLQPEDFATYYCQHFWSSPYTFGQGTKLEIK
notes: Measured as monovalent Fab; also called No. 31
B7: humanized 16H11-derived Fab, VH AK463-2 / VL AK418-2 (Fab, V domains shown)
VH: QVQLVQSGAEVKKPGSSVKVSCKASGYDFSNFWMNWVRQAPGQGLEWMGQIYPGDGEIKYNQKFQGRVTITADESTSTAYMELSSLRSEDTAVYYCARDDYLRAMDYWGQGTLVTVSS
VL: DIQMTQSPSSLSASVGDRVTITCRASGNIHNYLAWYQQKPGKAPKFLLYSAKRLESGVPSRFSGSGSGTDYTLTISSLQPEDFATYYCQHFWSSPYTFGGGTKVEIK
notes: Measured as monovalent Fab; also called No. 35; VH463-2 and VL418-2
B8: humanized 16H11-derived Fab, VH AK463-2 / VL AK419-2 (Fab, V domains shown)
VH: QVQLVQSGAEVKKPGSSVKVSCKASGYDFSNFWMNWVRQAPGQGLEWMGQIYPGDGEIKYNQKFQGRVTITADESTSTAYMELSSLRSEDTAVYYCARDDYLRAMDYWGQGTLVTVSS
VL: DIQMTQSPSSLSASVGDRVTITCRASQNIHNYLAWYQQKPGKAPKFLLYSAKRLESGVPSRFSGSGSGTDYTLTISSLQPEDFATYYCQHFWSSPYTFGGGTKVEIK
notes: Measured as monovalent Fab; also called No. 38
B9: humanized 16H11-derived Fab, VH AK463-2 / VL AK448-3 (Fab, V domains shown)
VH: QVQLVQSGAEVKKPGSSVKVSCKASGYDFSNFWMNWVRQAPGQGLEWMGQIYPGDGEIKYNQKFQGRVTITADESTSTAYMELSSLRSEDTAVYYCARDDYLRAMDYWGQGTLVTVSS
VL: DIQMTQSPSSLSASVGDRVTITCRASQNIHNYLAWYQQKPGKAPKFLLYSAKRLESGVPSRFSGSGSGTDYTLTISSLQPEDFATYYCQHFWSSPYTFGQGTKLEIK
notes: Measured as monovalent Fab; also called No. 36; Vh463-2 and VL448-3
B10: humanized 16H11-derived Fab, VH AK465-17 / VL AK418-2 (Fab, V domains shown)
VH: QVQLVQSGAEVKKPGSSVKVSCKASGYDFSNFWMNWVRQAPGQGLEWMGQIYPGDGEIKYAQKFQGRVTITADESTSTAYMELSSLRSEDTAVYYCARDDYLRAMDIWGQGTMVTVSS
VL: DIQMTQSPSSLSASVGDRVTITCRASGNIHNYLAWYQQKPGKAPKFLLYSAKRLESGVPSRFSGSGSGTDYTLTISSLQPEDFATYYCQHFWSSPYTFGGGTKVEIK
notes: Measured as monovalent Fab; also called No. 39; FH465-17 and VL418-2
B11: humanized 16H11-derived Fab, VH AK465-17 / VL AK419-2 (Fab, V domains shown)
VH: QVQLVQSGAEVKKPGSSVKVSCKASGYDFSNFWMNWVRQAPGQGLEWMGQIYPGDGEIKYAQKFQGRVTITADESTSTAYMELSSLRSEDTAVYYCARDDYLRAMDIWGQGTMVTVSS
VL: DIQMTQSPSSLSASVGDRVTITCRASQNIHNYLAWYQQKPGKAPKFLLYSAKRLESGVPSRFSGSGSGTDYTLTISSLQPEDFATYYCQHFWSSPYTFGGGTKVEIK
notes: Measured as monovalent Fab; also called No. 40
B12: humanized 16H11-derived Fab, VH AK465-17 / VL AK448-3 (Fab, V domains shown)
VH: QVQLVQSGAEVKKPGSSVKVSCKASGYDFSNFWMNWVRQAPGQGLEWMGQIYPGDGEIKYAQKFQGRVTITADESTSTAYMELSSLRSEDTAVYYCARDDYLRAMDIWGQGTMVTVSS
VL: DIQMTQSPSSLSASVGDRVTITCRASQNIHNYLAWYQQKPGKAPKFLLYSAKRLESGVPSRFSGSGSGTDYTLTISSLQPEDFATYYCQHFWSSPYTFGQGTKLEIK
notes: Measured as monovalent Fab; also called No. 41
B13: humanized 16H11-derived Fab, VH AK484-6 / VL AK418-2 (Fab, V domains shown)
VH: QVQLVQSGAEVKKPGSSVKVSCKASGYDFSNYWMNWVRQAPGQGLEWMGQIYPGDGEIKYNQKFQGRVTITADESTSTAYMELSSLRSEDTAVYYCARDDYLRAMDIWGQGTMVTVSS
VL: DIQMTQSPSSLSASVGDRVTITCRASGNIHNYLAWYQQKPGKAPKFLLYSAKRLESGVPSRFSGSGSGTDYTLTISSLQPEDFATYYCQHFWSSPYTFGGGTKVEIK
notes: Measured as monovalent Fab; also called No. 42; VH484-6 and VL418-2
B14: humanized 16H11-derived Fab, VH AK484-6 / VL AK448-3 (Fab, V domains shown)
VH: QVQLVQSGAEVKKPGSSVKVSCKASGYDFSNYWMNWVRQAPGQGLEWMGQIYPGDGEIKYNQKFQGRVTITADESTSTAYMELSSLRSEDTAVYYCARDDYLRAMDIWGQGTMVTVSS
VL: DIQMTQSPSSLSASVGDRVTITCRASQNIHNYLAWYQQKPGKAPKFLLYSAKRLESGVPSRFSGSGSGTDYTLTISSLQPEDFATYYCQHFWSSPYTFGQGTKLEIK
notes: Measured as monovalent Fab; also called No. 43; VH484-6 and VL448-3
B15: humanized 16H11-derived Fab, VH AK484-7 / VL AK448-3 (Fab, V domains shown)
VH: QVQLVQSGAEVKKPGSSVKVSCKASGYDFSNYWMNWVRQAPGQGLEWMGQIYPGDGEIKYNQKFQGRVTITADESTSTAYMELSSLRSEDTAVYYCARDDYLRAMDYWGQGTLVTVSS
VL: DIQMTQSPSSLSASVGDRVTITCRASQNIHNYLAWYQQKPGKAPKFLLYSAKRLESGVPSRFSGSGSGTDYTLTISSLQPEDFATYYCQHFWSSPYTFGQGTKLEIK
notes: Measured as monovalent Fab; also called No. 44; VH484-7 and VL448-3
B16: humanized 16H11-derived Fab, VH AK485-4 / VL AK448-3 (Fab, V domains shown)
VH: QVQLVQSGAEVKKPGSSVKVSCKASGYDFSNFAMNWVRQAPGQGLEWMGQIYPGDGEIKYNQKFQGRVTITADESTSTAYMELSSLRSEDTAVYYCARDDYLRAMDYWGQGTLVTVSS
VL: DIQMTQSPSSLSASVGDRVTITCRASQNIHNYLAWYQQKPGKAPKFLLYSAKRLESGVPSRFSGSGSGTDYTLTISSLQPEDFATYYCQHFWSSPYTFGQGTKLEIK
notes: Measured as monovalent Fab; also called No. 47
B17: humanized 16H11-derived Fab, VH AK485-5 / VL AK418-2 (Fab, V domains shown)
VH: QVQLVQSGAEVKKPGSSVKVSCKASGYDFSNFAMNWVRQAPGQGLEWMGQIYPGDGEIKYNQKFQGRVTITADESTSTAYMELSSLRSEDTAVYYCARDDYLRAMDIWGQGTMVTVSS
VL: DIQMTQSPSSLSASVGDRVTITCRASGNIHNYLAWYQQKPGKAPKFLLYSAKRLESGVPSRFSGSGSGTDYTLTISSLQPEDFATYYCQHFWSSPYTFGGGTKVEIK
notes: Measured as monovalent Fab; also called No. 45
B18: humanized 16H11-derived Fab, VH AK485-5 / VL AK448-3 (Fab, V domains shown)
VH: QVQLVQSGAEVKKPGSSVKVSCKASGYDFSNFAMNWVRQAPGQGLEWMGQIYPGDGEIKYNQKFQGRVTITADESTSTAYMELSSLRSEDTAVYYCARDDYLRAMDIWGQGTMVTVSS
VL: DIQMTQSPSSLSASVGDRVTITCRASQNIHNYLAWYQQKPGKAPKFLLYSAKRLESGVPSRFSGSGSGTDYTLTISSLQPEDFATYYCQHFWSSPYTFGQGTKLEIK
notes: Measured as monovalent Fab; also called No. 46

Molecular target: T1, Siglec-7-ECD (human, UniProt Q9Y286 19-353)
T1 construct: also called p75; AIRM
Experiment: bio-layer interferometry (ForteBio): antibody captured on the sensor, Siglec-7-ECD as analyte, 1:1 global fit
Protocol: A panel of antibodies was evaluated for binding to Siglec-7. The results identified anti-Siglec-7 antibodies that have improved KD values compared to commercially available anti-Siglec-7 antibodies (FIG. 7).
Antibody binding analysis was carried out by bio-layer interferometry (ForteBio). […] Antibodies were captured on anti-mouse kinetic sensors at 0.5 ug/mL; Siglec-7-ECD was used as analyte and diluted in assay buffer from 50 nM to 1.56 nM with 2× dilutions. Two-minute associations were conducted, followed by 10-minute dissociations. Results were determined relative to a control empty reference AHC sensor, and analyzed using ForteBio analysis software with 1:1 global fit parameters.

T1 sequence (Q9Y286 19-353 limits assumed): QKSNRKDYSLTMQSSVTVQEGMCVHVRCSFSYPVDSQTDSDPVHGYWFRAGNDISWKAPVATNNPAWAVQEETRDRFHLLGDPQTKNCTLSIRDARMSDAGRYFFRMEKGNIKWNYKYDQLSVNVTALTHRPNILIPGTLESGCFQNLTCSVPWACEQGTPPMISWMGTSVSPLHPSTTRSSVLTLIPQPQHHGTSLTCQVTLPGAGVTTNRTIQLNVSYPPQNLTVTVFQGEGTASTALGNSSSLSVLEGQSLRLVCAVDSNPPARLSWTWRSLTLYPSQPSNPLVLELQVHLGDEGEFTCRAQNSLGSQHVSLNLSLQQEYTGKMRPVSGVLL

B1 and B2 are the same in Kd: 1 pM for the first, 1 pM for the second.

B3 gave a Kd of 260 pM.

Molecular target: Siglec-7 on primary human cells (NK cells, CD8+ tumor-infiltrating T cells) (human, UniProt Q9Y286 19-467)
Experiment: cell-based or functional assay

Sequence of Siglec-7 on primary human cells (NK cells, CD8+ tumor-infiltrating T cells) (Q9Y286 19-467 limits assumed): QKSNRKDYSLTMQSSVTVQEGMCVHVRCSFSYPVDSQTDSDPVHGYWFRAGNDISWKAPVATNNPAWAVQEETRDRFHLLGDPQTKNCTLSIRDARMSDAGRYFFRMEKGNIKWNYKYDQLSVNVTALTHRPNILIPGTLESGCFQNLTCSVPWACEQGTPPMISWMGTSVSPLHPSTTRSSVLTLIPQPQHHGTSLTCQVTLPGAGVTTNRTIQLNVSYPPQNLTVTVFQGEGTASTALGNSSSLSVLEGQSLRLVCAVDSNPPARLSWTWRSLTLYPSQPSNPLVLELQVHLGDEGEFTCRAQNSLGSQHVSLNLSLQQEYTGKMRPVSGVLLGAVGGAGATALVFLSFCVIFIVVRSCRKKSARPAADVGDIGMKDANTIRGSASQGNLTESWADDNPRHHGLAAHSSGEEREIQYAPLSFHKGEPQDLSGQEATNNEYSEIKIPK

B1 and B4 are within 1.5-fold of each other in “IC50 of Siglec-7 internalization on NK cells (24 h, PBMC; remaining surface Siglec-7 stained with 4B12-AF647)” value: 14.9 pM for the first, 17.5 pM for the second.

B2 was tested, and the “IC50 of Siglec-7 internalization on NK cells (24 h, PBMC; remaining surface Siglec-7 stained with 4B12-AF647)” value was 20.6 pM.

Molecular target: T1, Siglec-7-ECD
Experiment: monovalent Fab; bio-layer interferometry (ForteBio) per Methods

B5 and B6 cannot be ordered by Kd: less than 0.1 nM for the first, 0.05 to 0.1 nM for the second.

First: B7
Second: B8
The Kd of the first is lower: less than 0.075 nM for the first, greater than 0.5 nM for the second.

B9 and B10 cannot be ordered by Kd: less than 0.075 nM for the first, less than 0.075 nM for the second.

First: B11
Second: B12
The Kd of the first is higher: 0.15 to 0.25 nM for the first, 0.1 to 0.15 nM for the second. The second binds more tightly here.

B13 and B14 cannot be ordered by Kd: less than 0.1 nM for the first, less than 0.075 nM for the second.

First: B15
Second: B16
The Kd of the first is lower: less than 0.075 nM for the first, greater than 0.5 nM for the second.

B17 and B18 cannot be ordered by Kd: greater than 0.5 nM for the first, greater than 0.5 nM for the second.
